{
  "source": "paper PMC4688242",
  "about": "(Neurobiology of disease, 2015)",
  "target": "the molecule itself",
  "experiment": "SDS-PAGE and Western blot of SDS-resistant oligomers",
  "data": [
    {"protein": "EASNCFAIRHFENKFAVETLICFNLFLNSQEKHY (N-terminal pyroglutamate (pE) in place of Glu1)", "note": "[ADan pE (34-amino acid ADan amyloid peptide with N-terminal pyroglutamate)]", "values": [
      {"measurement": "binding result", "result": "binds"}
    ]},
    {"protein": "EASNCFAIRHFENKFAVETLICFNLFLNSQEKHY", "note": "[ADan E (34-amino acid ADan amyloid peptide with N-terminal glutamate)]", "values": [
      {"measurement": "binding result", "result": "binds"}
    ]}
  ]
}
